The values that follow come from article PMC10367076, “Mechanistic and Structural Insights into a Divergent PLP-Dependent L-Enduracididine Cyclase from a Toxic Cyanobacterium” (ACS Catalysis, 2023).

Data set [1] deals with N=C(N)NC[C@@H](O)C[C@H](N)C(=O)O. Description: purified protein. Conditions: KPi buffer; PLP cofactor co-purified; cyclodehydration to L-enduracididine.
For data set [2], the target named is GntC E9A (Sphaerospermopsis torques-reginae ITEP-024). Description: SEC; analytical size exclusion chromatography of purified wild-type GntC and mutants.
For data set [3], the target named is GntC E9D (Sphaerospermopsis torques-reginae ITEP-024). The data set is described as above.
For data set [4], the target named is GntC E9Q (Sphaerospermopsis torques-reginae ITEP-024). The data set is described as above.
In data set [5] the target is GntC K219A (Sphaerospermopsis torques-reginae ITEP-024). The data set is described as above.
Data set [6] deals with GntC N52A (Sphaerospermopsis torques-reginae ITEP-024). Described as above.
Data set [7] concerns the target GntC N52D (Sphaerospermopsis torques-reginae ITEP-024). The data set is described as above.
Data set [8] concerns the target GntC N52Q (Sphaerospermopsis torques-reginae ITEP-024). The data set is described as above.
In data set [9] the target is GntC S25A (Sphaerospermopsis torques-reginae ITEP-024). The description is as above.
Data set [10] has as its target GntC T84A (Sphaerospermopsis torques-reginae ITEP-024). The data set is described as above.
Data set [11] addresses GntC T84V (Sphaerospermopsis torques-reginae ITEP-024). The data set is described as above.
Data set [12] addresses Sphaerospermopsis torques-reginae ITEP-024 GntC (Sphaerospermopsis torques-reginae ITEP-024). Described as above.

For the substance “GntC (Sphaerospermopsis torques-reginae ITEP-024)”, in data set [1], the Km was 150 ± 80 µM and the kcat was 0.0061 ± 0.008 min^–1. Take GntC E9A (enzyme): the stoichiometry N in [2] came out at 2. With GntC E9D (enzyme), in data set [3], the stoichiometry N was 2.

In data set [4], GntC E9Q (enzyme) came in with a stoichiometry N of 2. The substance GntC K219A (enzyme) gave a stoichiometry N in data set [5] of 2.

Consider GntC N52A (enzyme), for which the stoichiometry N in data set [6] is 2. As to GntC N52D (enzyme), the stoichiometry N in data set [7] stood at 2. Consider GntC N52Q (enzyme), for which the stoichiometry N in data set [8] turned out to be 2. As for GntC S25A (enzyme), in data set [9], the stoichiometry N came to 2. In the case of GntC T84A (enzyme), the stoichiometry N in data set [10] was determined as 2. The substance GntC T84V (enzyme) registered a stoichiometry N in [11] of 2. “Sphaerospermopsis torques-reginae ITEP-024 GntC (enzyme)”: the stoichiometry N in [12] was 2.
